In patent publication US20240218064A1 (AstraZeneca / MedImmune, published 2024):
Values belong to the binder of their own block, whether it stands above or below them.

Tests used:
cynomolgus monkey LOX-1 = cynomolgus monkey LOX-1 (cynomolgus monkey, UniProt A0A2K5VQ73 79-291); assay: BIAcore (SPR)
[1] = target: T1, human LOX-1 (lectin-like oxidized low density lipoprotein receptor-1) (human, UniProt P78380 61-273); assay: BIAcore (SPR); Fab, not full mAb; LOX-1
[2] = target: T2, soluble LOX-1 (sLOX-1) in sera of participants with T2DM (human, UniProt P78380 89-273, limits assumed); assay: sLOX-1 in sera of participants with T2DM; the paragraph names BIAcore, the method for this value is not made clear; full mAb; sLOX-1 in sera of participants with T2DM
T2 construct: domain: cleaved soluble domain of LOX-1; Endogenous protein in patient serum; also called soluble lectin-like oxidized low-density lipoprotein receptor 1

[3] = target: T1, human LOX-1 (lectin-like oxidized low …); assay: in vitro inhibition of ligand binding to human LOX-1; competitor ligand AGE-BSA; ligand AGE-BSA
From the text: (§1) FIG. 3. MEDI6570 inhibition of ligand binding. AGE-BSA=advanced glycation end products-bovine serum albumin; CRP=c-reactive protein; IgG-immunoglobulin G; OxLDL=oxidized low-density lipoprotein. Antibodies were titrated across a 384 well dilution plate in assay buffer (PBS/0.1% BSA/0.01% Tween 20) over 24 points in duplicate.
(§2) The ability of MEDI6570 to inhibit binding of the LOX-1 ligands oxLDL, AGE (advanced glycation end products, in this case glycated bovine serum albumin, BSA) and CRP was determined using in vitro assays. AGEs are known ligands of LOX-1. They commonly occur in patients that have poorly regulated levels of blood glucose, which is a risk factor for cardiovascular disease.

[4] = target: T1, human LOX-1 (lectin-like oxidized low …); assay: in vitro inhibition of ligand binding to human LOX-1; competitor ligand CRP; ligand CRP
From the text: as §1, §2

[5] = target: T1, human LOX-1 (lectin-like oxidized low …); assay: in vitro inhibition of ligand binding to human LOX-1; competitor ligand oxLDL; ligand oxLDL
From the text: as §1, §2

Kd (cynomolgus monkey LOX-1): 0.116 nM
Kd [1]: 0.056 nM
B1: MEDI6570 Fab (Fab, V domains shown)
VH: QVQLVQSGAEVKKPGASVKVSCKVSGYTLTELSMHWVRQAPGKGLEWMGGFDPEDFKYHTHQKFQGRVTMTEDTSTDTAYMELSSLRSEDTAVYYCALVWGTQGKGVRGWDYYYGMDVWGQGTTVTVSS
VL: QSVVTQPPSVSGAPGQRVTISCTGSSSNIGAGYDVHWYQQLPGTAPKLLIYGNSNRPSGVPDRFSGSKSGTSASLAITGLQAEDEADYYCQSYDSSLSGWVFGGGTKLTVL
notes: also called Fab of the antibody MEDI6570

Kd [2]: ~0.173 nM
IC50 [3]: 0.54 nM
IC50 [4]: 4.8 nM
IC50 [5]: 0.34 nM
B2: MEDI6570 (antibody, human IgG1, lambda, V domains shown)
VH: B1 VH
VL: QSVVTQPPSVSGAPGQRVTISCTGSSSNIGAGYDVHWYQQLPGTAPKLLIYGNSNRPSGVPDRFSGSKSGTSASLAITGLQAEDEADYYCQSYDSSLSGWVFGGGTKLTVLG
notes: Fully human IgG1-lambda; also called LX5140110-IgG1-TM
